Measured values reported in US20180155451A1 (published 2018).

Target: T1, FcγRIa extracellular domain with C-terminal His tag (human, UniProt P12314 16-292)
T1 construct: extracellular domain; also called FcgRI; CD64; not shown: His tag at the C terminus
Experiment: SPR Biacore, relative FcγRIa binding vs GpH7-A5/GpH7-B3/GpL16-k0

T1 sequence (P12314 16-292): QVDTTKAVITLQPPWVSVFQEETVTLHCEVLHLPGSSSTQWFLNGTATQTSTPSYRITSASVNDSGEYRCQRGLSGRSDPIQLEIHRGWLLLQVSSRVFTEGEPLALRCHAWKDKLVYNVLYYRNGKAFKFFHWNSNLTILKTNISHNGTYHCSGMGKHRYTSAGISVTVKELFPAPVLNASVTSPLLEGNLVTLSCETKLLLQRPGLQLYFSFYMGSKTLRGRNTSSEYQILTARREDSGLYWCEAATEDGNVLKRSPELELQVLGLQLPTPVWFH

| Binder | He/Con_1a |
| --- | --- |
| GpH7-A5/GpH7-B3 variant S267_03V/GpL16-k0 (antibody, human IgG1, kappa, mutation in one H chain only; also called He Ab S267_03V; S267V) heavy 1: not shown heavy 2: not shown light: DIVMTQSPLSLPVTPGEPASISCQASESLVHSNRNTYLHWYLQKPGQSPQLLIYKVSNRFSGVPDRFSGSGSGTDFTLKISRVEAEDVGVYYCSQNTHVPPTFGQGTKVEIERTVAAPSVFIFPPSDEQLKSGTASVVCLLNNFYPREAKVQWKVDNALQSGNSQESVTEQDSKDSTYSLSSTLTLSKADYEKHKVYACEVTHQGLSSPVTKSFNRGEC | 106 % of HeCon Ab (=100) |
| GpH7-A5/GpH7-B3 variant S298_10E/GpL16-k0 (antibody, human IgG1, kappa, mutation in one H chain only; also called He Ab S298_10E; S298E) heavy 1: not shown heavy 2: not shown light: DIVMTQSPLSLPVTPGEPASISCQASESLVHSNRNTYLHWYLQKPGQSPQLLIYKVSNRFSGVPDRFSGSGSGTDFTLKISRVEAEDVGVYYCSQNTHVPPTFGQGTKVEIERTVAAPSVFIFPPSDEQLKSGTASVVCLLNNFYPREAKVQWKVDNALQSGNSQESVTEQDSKDSTYSLSSTLTLSKADYEKHKVYACEVTHQGLSSPVTKSFNRGEC | 108 % of HeCon Ab (=100) |
| GpH7-A5/GpH7-B3 variant S298_02A/GpL16-k0 (antibody, human IgG1, kappa, mutation in one H chain only; also called He Ab S298_02A; S298A) heavy 1: not shown heavy 2: not shown light: DIVMTQSPLSLPVTPGEPASISCQASESLVHSNRNTYLHWYLQKPGQSPQLLIYKVSNRFSGVPDRFSGSGSGTDFTLKISRVEAEDVGVYYCSQNTHVPPTFGQGTKVEIERTVAAPSVFIFPPSDEQLKSGTASVVCLLNNFYPREAKVQWKVDNALQSGNSQESVTEQDSKDSTYSLSSTLTLSKADYEKHKVYACEVTHQGLSSPVTKSFNRGEC | 107 % of HeCon Ab (=100) |
| GpH7-A5/GpH7-B3 variant S298_04F/GpL16-k0 (antibody, human IgG1, kappa, mutation in one H chain only; also called He Ab S298_04F; S298F) heavy 1: not shown heavy 2: not shown light: DIVMTQSPLSLPVTPGEPASISCQASESLVHSNRNTYLHWYLQKPGQSPQLLIYKVSNRFSGVPDRFSGSGSGTDFTLKISRVEAEDVGVYYCSQNTHVPPTFGQGTKVEIERTVAAPSVFIFPPSDEQLKSGTASVVCLLNNFYPREAKVQWKVDNALQSGNSQESVTEQDSKDSTYSLSSTLTLSKADYEKHKVYACEVTHQGLSSPVTKSFNRGEC | 109 % of HeCon Ab (=100) |
| GpH7-A5/GpH7-B3 variant S239_14T/GpL16-k0 (antibody, human IgG1, kappa, mutation in one H chain only; also called He Ab S239_14T; S239T) heavy 1: not shown heavy 2: not shown light: DIVMTQSPLSLPVTPGEPASISCQASESLVHSNRNTYLHWYLQKPGQSPQLLIYKVSNRFSGVPDRFSGSGSGTDFTLKISRVEAEDVGVYYCSQNTHVPPTFGQGTKVEIERTVAAPSVFIFPPSDEQLKSGTASVVCLLNNFYPREAKVQWKVDNALQSGNSQESVTEQDSKDSTYSLSSTLTLSKADYEKHKVYACEVTHQGLSSPVTKSFNRGEC | 101 % of HeCon Ab (=100) |
| GpH7-A5/GpH7-B3 variant S239_18N/GpL16-k0 (antibody, human IgG1, kappa, mutation in one H chain only; also called He Ab S239_18N; S239N) heavy 1: not shown heavy 2: not shown light: DIVMTQSPLSLPVTPGEPASISCQASESLVHSNRNTYLHWYLQKPGQSPQLLIYKVSNRFSGVPDRFSGSGSGTDFTLKISRVEAEDVGVYYCSQNTHVPPTFGQGTKVEIERTVAAPSVFIFPPSDEQLKSGTASVVCLLNNFYPREAKVQWKVDNALQSGNSQESVTEQDSKDSTYSLSSTLTLSKADYEKHKVYACEVTHQGLSSPVTKSFNRGEC | 101 % of HeCon Ab (=100) |
| GpH7-A5/GpH7-B3 variant S298_08L/GpL16-k0 (antibody, human IgG1, kappa, mutation in one H chain only; also called He Ab S298_08L; S298L) heavy 1: not shown heavy 2: not shown light: DIVMTQSPLSLPVTPGEPASISCQASESLVHSNRNTYLHWYLQKPGQSPQLLIYKVSNRFSGVPDRFSGSGSGTDFTLKISRVEAEDVGVYYCSQNTHVPPTFGQGTKVEIERTVAAPSVFIFPPSDEQLKSGTASVVCLLNNFYPREAKVQWKVDNALQSGNSQESVTEQDSKDSTYSLSSTLTLSKADYEKHKVYACEVTHQGLSSPVTKSFNRGEC | 107 % of HeCon Ab (=100) |
| GpH7-A5/GpH7-B3 variant S267_01G/GpL16-k0 (antibody, human IgG1, kappa, mutation in one H chain only; also called He Ab S267_01G; S267G) heavy 1: not shown heavy 2: not shown light: DIVMTQSPLSLPVTPGEPASISCQASESLVHSNRNTYLHWYLQKPGQSPQLLIYKVSNRFSGVPDRFSGSGSGTDFTLKISRVEAEDVGVYYCSQNTHVPPTFGQGTKVEIERTVAAPSVFIFPPSDEQLKSGTASVVCLLNNFYPREAKVQWKVDNALQSGNSQESVTEQDSKDSTYSLSSTLTLSKADYEKHKVYACEVTHQGLSSPVTKSFNRGEC | 103 % of HeCon Ab (=100) |
| GpH7-A5/GpH7-B3 variant S298_01G/GpL16-k0 (antibody, human IgG1, kappa, mutation in one H chain only; also called He Ab S298_01G; S298G) heavy 1: not shown heavy 2: not shown light: DIVMTQSPLSLPVTPGEPASISCQASESLVHSNRNTYLHWYLQKPGQSPQLLIYKVSNRFSGVPDRFSGSGSGTDFTLKISRVEAEDVGVYYCSQNTHVPPTFGQGTKVEIERTVAAPSVFIFPPSDEQLKSGTASVVCLLNNFYPREAKVQWKVDNALQSGNSQESVTEQDSKDSTYSLSSTLTLSKADYEKHKVYACEVTHQGLSSPVTKSFNRGEC | 104 % of HeCon Ab (=100) |
| GpH7-A5/GpH7-B3 variant S239_09D/GpL16-k0 (antibody, human IgG1, kappa, mutation in one H chain only; also called He Ab S239_09D; S239D) heavy 1: not shown heavy 2: not shown light: DIVMTQSPLSLPVTPGEPASISCQASESLVHSNRNTYLHWYLQKPGQSPQLLIYKVSNRFSGVPDRFSGSGSGTDFTLKISRVEAEDVGVYYCSQNTHVPPTFGQGTKVEIERTVAAPSVFIFPPSDEQLKSGTASVVCLLNNFYPREAKVQWKVDNALQSGNSQESVTEQDSKDSTYSLSSTLTLSKADYEKHKVYACEVTHQGLSSPVTKSFNRGEC | 101 % of HeCon Ab (=100) |
| GpH7-A5/GpH7-B3 variant S239_19Q/GpL16-k0 (antibody, human IgG1, kappa, mutation in one H chain only; also called He Ab S239_19Q; S239Q) heavy 1: not shown heavy 2: not shown light: DIVMTQSPLSLPVTPGEPASISCQASESLVHSNRNTYLHWYLQKPGQSPQLLIYKVSNRFSGVPDRFSGSGSGTDFTLKISRVEAEDVGVYYCSQNTHVPPTFGQGTKVEIERTVAAPSVFIFPPSDEQLKSGTASVVCLLNNFYPREAKVQWKVDNALQSGNSQESVTEQDSKDSTYSLSSTLTLSKADYEKHKVYACEVTHQGLSSPVTKSFNRGEC | 101 % of HeCon Ab (=100) |
